Data on 3 molecules can be found in CN114989300A (BIO THERA SOLUTIONS LTD, dated 2022).

T1: 人TIGIT (TIGIT-Jurkat细胞表面) (human, UniProt Q495A1 22-244)
T1 construct: whole, on cells
T1 sequence (looked up): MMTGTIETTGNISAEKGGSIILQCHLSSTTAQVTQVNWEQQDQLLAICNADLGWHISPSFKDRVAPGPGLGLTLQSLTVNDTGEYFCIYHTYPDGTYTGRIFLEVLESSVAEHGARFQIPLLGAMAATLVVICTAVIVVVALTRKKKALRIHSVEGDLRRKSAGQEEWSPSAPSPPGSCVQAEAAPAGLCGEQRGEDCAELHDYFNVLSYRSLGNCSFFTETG

B1: 抗体h10D8OF (antibody, human IgG1, kappa, V domains shown)
VH: QVQLVESGGGVVQPGRSLRLDCKASGFTFSSYGMSWVRQAPGKGLELVATINSNGGSTYYPDSVKGRFTISRDNSKNTLFLQMNSLRAEDTAVYYCARLGTGTLGFAYWGQGTLVTVSS
VL: EIVMTQSPATLSLSPGERATLSCKASQDVKTAVSWYQQKPGQAPRLLIYWASTRATGIPARFSGSGSGTDYTLTISSLEPEDFAVYYCQQHYSTPWTFGQGTKVEIKR
notes: also called 抗TIGIT抗体
B2: 抗体h10D8OFKF (antibody, human IgG1, kappa, V domains shown)
VH: B1 VH
VL: B1 VL
modifications: fucosylation level about 0 (expressed in alpha-(1,6)-fucosyltransferase knockout CHO cells)
notes: also called 抗TIGIT抗体
B3: 参照抗体Tiragolumab (antibody, V domains shown)
VH: EVQLQQSGPGLVKPSQTLSLTCAISGDSVSSNSAAWNWIRQSPSRGLEWLGKTYYRFKWYSDYAVSVKGRITINPDTSKNQFSLQLNSVTPEDTAVFYCTRESTTYDLLAGPFDYWGQGTLVTVSS
VL: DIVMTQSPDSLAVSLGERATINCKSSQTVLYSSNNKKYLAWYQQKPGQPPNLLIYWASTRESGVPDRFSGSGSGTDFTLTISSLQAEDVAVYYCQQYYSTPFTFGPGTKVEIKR

The target of this test is T1, 人TIGIT (TIGIT-Jurkat细胞表面). Briefly: flow cytometry; blocking of 12.5 nM biotinylated PVR-Fc binding to TIGIT-Jurkat cells. (In general: In flow cytometry, cells or beads pass a laser one at a time.)
As usually defined, the IC50 is the midpoint of a concentration-inhibition curve. A low value points to greater potency. As to B1, the IC50 came to 0.441 nM.

Regarding B2, the IC50 came to 0.742 nM. This IC50 is about 1.7-fold higher than that of the molecule before.

In turn, B3 yielded an IC50 of 2.82 nM.
